In PMC3961337, “FRET-Based System for Probing Protein-Protein Interactions between σ^R and RsrA from Streptomyces Coelicolor in Response to the Redox Environment” (PLoS ONE, 2014):

B1: rsrA-cfp-pET28a (+) protein (RCP) (natural protein, S. coelicolor M145, UniProt Q7AKG8 1-105, looked up)
chain: MSCGEPHETDCSEILDHLYEFLDKEMPDSDCVKFEHHFEECSPCLEKYGLEQAVKKLVKRCCGQDDVPGDLRAKVMGRLDLIRSGQSVPEHDVAAAPSSSAPQES
notes: anti-sigma factor RsrA of Streptomyces coelicolor, amplified from the M145 genome with primers rsrAA and rsrAB; RsrA, then E-F (EcoRI site) and G-G-S, then CFP from M-V-S-K-G to M-D-E-L-Y-K (worked out from primers cfpA and cfpB), cloned NcoI/EcoRI/HindIII in pET28a (+); source: E. coli BL21 (DE3), purified (Ni-NTA); also co-expressed with SYP in E. coli BL21 (DE3) cells, unpurified; not shown: …
B2: RCP with the histidine tag removed by thrombin (zinc function assay) (natural protein, S. coelicolor M145, UniProt Q7AKG8 1-105, looked up)
chain: B1 chain
notes: anti-sigma factor RsrA of Streptomyces coelicolor, amplified from the M145 genome with primers rsrAA and rsrAB; Same construct as m4 after thrombin; Zinc removed with EDTA (apo-RCP); Zn-RCP is the same protein with 500 uM ZnSO4 added; also called apo-RCP; Zn-RCP; not shown: CFP (after a glycine-glycine-serine linker), C-terminal, kept; His tag, N-terminal, cleaved

How the values were obtained:
Details in all cases: both partners purified
[1] = biological target: T1, sigR-yfp-pET28a (+) protein (SYP) (S. coelicolor M145, UniProt Q7AKG9 1-227, biotinylated for the biolayer interferometry only); assay: FRET or BRET; FRET efficiency titration: increasing SYP (or YFP) from 0.1 nM to 0.85 μM added to a determined concentration of RCP in binding buffer with 2.5 mM DTT; single-site binding curve
T1 construct: ECF sigma factor σR (SigR) of Streptomyces coelicolor, amplified from the M145 genome with primers sigRC and sigRD; the primers encode M-G-T-G-T-D-A at the start (after the NcoI site) and K-G-S-G-S before the HindIII site (worked out from the primers); σR, then K-L (HindIII site) and G-G-S, then YFP from M-V-S-K-G to M-D-E-L-Y-K (worked out from primers yfpC and yfpD), cloned NcoI/HindIII/XhoI in …
T1 sequence (Q7AKG9 whole entry): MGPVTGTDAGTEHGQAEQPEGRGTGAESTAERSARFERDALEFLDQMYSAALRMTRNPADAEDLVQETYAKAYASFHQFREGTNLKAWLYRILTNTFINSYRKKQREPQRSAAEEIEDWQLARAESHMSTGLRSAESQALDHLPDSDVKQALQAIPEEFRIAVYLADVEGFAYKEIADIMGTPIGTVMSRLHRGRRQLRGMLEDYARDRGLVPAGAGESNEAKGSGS

[2] = biological target: T2, SYP with the histidine tag removed by thrombin (zinc function assay) (S. coelicolor M145, UniProt Q7AKG9 1-227); assay: FRET or BRET; zinc function assay with ZnSO4: His tags removed by thrombin; increasing ZnSO4 added to the mixture (Fig. 4A) and 500 μM ZnSO4 for the spectra (Fig. 4B); FRET ratio emission 528 nm/478 nm
T2 construct: ECF sigma factor σR (SigR) of Streptomyces coelicolor, amplified from the M145 genome with primers sigRC and sigRD; the primers encode M-G-T-G-T-D-A at the start (after the NcoI site) and K-G-S-G-S before the HindIII site (worked out from the primers); Same construct as m3 after thrombin; not shown: YFP (after a glycine-glycine-serine linker), C-terminal, kept; His tag, N-terminal, cleaved
T2 sequence (Q7AKG9 whole entry): as above

[3] = biological target: T2, SYP with the histidine tag removed by …; assay: FRET or BRET; zinc function assay, Zn-sample (500 μM ZnSO4) after removal of DTT and addition of 1 mM diamide; FRET ratio emission 528 nm/478 nm
[4] = biological target: T2, SYP with the histidine tag removed by …; assay: FRET or BRET; zinc function assay, apo-sample: His tags removed by thrombin, zinc removed with 5 mM EDTA; SYP and RCP at the same concentration, no ZnSO4; FRET ratio emission 528 nm/478 nm

| Binder | Kd [1] | FRET ratio (emission 528 nm/478 nm), with 500 μM ZnSO4 [2] | FRET ratio (emission 528 nm/478 nm), Zn-sample with diamide [3] | FRET ratio (emission 528 nm/478 nm), no ZnSO4 added [4] |
| --- | --- | --- | --- | --- |
| B1 | 81 ± 29 nM |  |  |  |
| B2 |  | 2.8 | 2.2 | 2.3 |
